Patent publication US20260242478A1 (published 2026)
Where no end group is shown, it is not given here.

B1: Phage-2640 (peptide)
peptide: VPKWCTPEWMCIIH
modifications: cysteine pairing not given here; also: displayed on phage pIII, linker not given here
notes: Clonal phage of the Peptide-180 library, tested as crude phage supernatant; not shown: pIII filament protein of the bacteriophage
B2: Phage-2636 (peptide)
peptide: DDRWCIPTWMCFLD
modifications: cysteine pairing not given here; also: displayed on phage pIII, linker not given here
notes: as for B1
B3: Phage-2641 (peptide)
peptide: AEKLCIPDWMCDVY
modifications: cysteine pairing not given here; also: displayed on phage pIII, linker not given here
notes: as for B1
B4: Phage-2645 (peptide)
peptide: FPKWCTPEWMCSLT
modifications: cysteine pairing not given here; also: displayed on phage pIII, linker not given here
notes: as for B1
B5: Phage-2643 (peptide)
peptide: VEKLCKPAWMCNGQ
modifications: cysteine pairing not given here; also: displayed on phage pIII, linker not given here
notes: as for B1
B6: Phage-2638 (peptide)
peptide: WAKWCTPVWMCQGI
modifications: cysteine pairing not given here; also: displayed on phage pIII, linker not given here
notes: as for B1
B7: Phage-2644 (peptide)
peptide: PERMCVPQWMCTVT
modifications: cysteine pairing not given here; also: displayed on phage pIII, linker not given here
notes: as for B1
B8: Phage-2647 (peptide)
peptide: LVKWCIPDWMCSLS
modifications: cysteine pairing not given here; also: displayed on phage as pIII fusion, fusion junction and sequence not given here
notes: as for B1
B9: Phage-2639 (peptide)
peptide: VGNWCTPMWMCQAF
modifications: cysteine pairing not given here; also: displayed on phage pIII, linker not given here
notes: as for B1
B10: Phage-2649 (peptide)
peptide: TWKWCTPAWMCSVM
modifications: cysteine pairing not given here; also: displayed on phage as pIII fusion, fusion junction and sequence not given here
notes: as for B1
B11: Phage-2642 (peptide)
peptide: DLKWCIPSWMCTST
modifications: cysteine pairing not given here; also: displayed on phage pIII, linker not given here
notes: as for B1
B12: Phage-2637 (peptide)
peptide: TVKWCTPPWMCEES
modifications: cysteine pairing not given here; also: displayed on phage pIII, linker not given here
notes: as for B1
B13: Phage-2646 (peptide)
peptide: QPKWCTPDWMCTGI
modifications: cysteine pairing not given here; also: displayed on phage as pIII fusion, fusion junction and sequence not given here
notes: as for B1
B14: Phage-2648 (peptide)
peptide: EYKWCTPIWMCQGN
modifications: cysteine pairing not given here; also: displayed on phage as pIII fusion, fusion junction and sequence not given here
notes: as for B1
B15: Phage-2742 (peptide)
peptide: DIKRCTPAWMCSWM
B16: Phage-2741 (peptide)
peptide: MSKWCVPTWMCQWQ
B17: Phage-2744 (peptide)
peptide: FDKWCTPPWMCKVF
B18: Phage-2745 (peptide)
peptide: TNKLCIPTWMCSGF
B19: Phage-2743 (peptide)
peptide: IMKWCTPTWMCEMG
B20: Phage-2740 (peptide)
peptide: GNSWCTPQWMCTGF
B21: Phage-2650 (peptide)
peptide: DVKWCIPPWMCPSF
B22: Phage-2659 (peptide)
peptide: GEHWCTPAWMCSVM
B23: Phage-2662 (peptide)
peptide: DYKWCTPPWMCLVD
B24: Phage-2660 (peptide)
peptide: VEKWCRPSWMCQQV
B25: Phage-2664 (peptide)
peptide: APHLCIPKWMCNPS
B26: Phage-2663 (peptide)
peptide: VVKWCTPAWMCSLN
B27: Phage-2665 (peptide)
peptide: EFKWCIPMWMCQAN
B28: Phage-2654 (peptide)
peptide: HEKWCTPPWMCELI
B29: Phage-2661 (peptide)
peptide: APKWCTPSWMCQQV
B30: Phage-2658 (peptide)
peptide: MPKWCTPQWMCEMY
B31: Phage-2653 (peptide)
peptide: ETKWCIPVWMCEHK
B32: Phage-2651 (peptide)
peptide: LQNWCVPAWMCELM
B33: Phage-2652 (peptide)
peptide: SNHLCTPPWMCYGF
B34: Phage-2656 (peptide)
peptide: AIKWCIPAWMCAQA
modifications: cysteine pairing not given here; also: displayed on phage as pIII fusion
B35: Phage-2655 (peptide)
peptide: FVNMCKPAWMCSLL
B36: Phage-2657 (peptide)
peptide: LQKWCIPAWMCSST

What follows are binders tested against T1, PSMA Fab (006 PSMA Fab) (biotinylated (site not given)) (assay: clonal phage ELISA; biotinylated PSMA Fab on neutravidin plate, wells pre-incubated with PSMA antigen as competitor; anti-M13 HRP detection;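 also: crude clonal phage supernatants added to antigen-treated wells without a wash, incubated briefly, then bound phage read out via horse radish–conjugated anti-M13 antibody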).
T1 construct: also called Anti-PSMA Fab; anti-PSMA Fab

Binder | Phage binding ELISA signal, Anti-PSMA Fab with PSMA antigen
B1 | 0.0705
B2 | 0.0733
B3 | 0.0771
B4 | 0.0592
B5 | 0.0808
B6 | 0.136
B7 | 0.107
B8 | 0.0865
B9 | 0.0864
B10 | 0.113
B11 | 0.0977
B12 | 0.0943
B13 | 0.105
B14 | 0.0626

These binders were tested against T2, PSMA Fab (006 PSMA Fab) (assay: clonal phage ELISA on biotinylated PSMA Fab captured on neutravidin plates, anti-M13 HRP detection;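 also: crude clonal phage supernatants tested, before phage were added, wells were pretreated with PSMA antigen in blocking buffer or with blocking buffer only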).
T2 construct: also called Anti-PSMA Fab; anti-PSMA Fab
Protocol: (§1) Clonal phage were harvested as crude supernatants and screened via standard ELISAs. […] Prior to the addition of clonal phage. wells were incubated with blocking buffer and PSMA antigen or blocking buffer alone. Without washing or aspirating, clonal phage supernatants were then added to the wells and incubated for a short time. Wells were then washed followed by detection of bound phage using a horse radish conjugated anti-M13 antibody.

Binder | Phage binding ELISA signal, Anti-PSMA Fab
B15 | 0.709
B16 | 0.711
B17 | 0.708
B18 | 0.703
B19 | 0.708
B20 | 0.712

These binders were tested against T2, PSMA Fab (006 PSMA Fab) (assay: clonal phage ELISA on captured PSMA Fab, wells pre-incubated with PSMA antigen as competitor, anti-M13 HRP detection;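 also: crude clonal phage supernatants added, with no intervening wash, to wells preincubated with PSMA antigen in blocking buffer, incubated briefly, then washed before detecting bound phage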).
Protocol: as §1

Binder | Phage binding ELISA signal, Anti-PSMA Fab with PSMA antigen
B15 | 0.0807
B16 | 0.0979
B17 | 0.143
B18 | 0.0715
B19 | 0.122
B20 | 0.0596

These binders were tested against T3, PSMA Fab (biotinylated (site not stated)) (assay: phage ELISA, biotinylated PSMA Fab on neutravidin plate, anti-M13-HRP detection, competitor PSMA antigen pre-incubated).
T3 construct: Biotinylated PSMA Fab captured on neutravidin plates in the phage ELISA; also called Anti-PSMA Fab; 006 PSMA Fab

Binder | Phage binding ELISA signal, Anti-PSMA Fab with PSMA antigen
B21 | 0.0771
B22 | 0.68
B23 | 0.083
B24 | 0.09
B25 | 0.105
B26 | 0.0846
B27 | 0.0753
B28 | 0.0717
B29 | 0.121
B30 | 0.0641
B31 | 0.122
B32 | 0.068
B33 | 0.0665
B34 | 0.0786
B35 | 0.0949
B36 | 0.0717

What follows are binders tested against T1, PSMA Fab (006 PSMA Fab) (assay: clonal phage ELISA; biotinylated PSMA Fab on neutravidin plate, blocking buffer alone; anti-M13 HRP detection;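 also: crude clonal phage supernatants added without washing to wells pretreated with blocking buffer with or without PSMA antigen, short incubation, then washed before detecting bound phage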).
Protocol: as §1

Binder | Phage binding ELISA signal, Anti-PSMA Fab
B1 | 0.958
B2 | 0.965
B3 | 0.957
B4 | 0.955
B5 | 0.956
B6 | 0.961
B7 | 0.956
B8 | 0.952
B9 | 0.961
B10 | 0.947
B11 | 0.957
B12 | 0.964
B13 | 0.954
B14 | 0.95

The binders below were run against T3, PSMA Fab (assay: phage ELISA, biotinylated PSMA Fab on neutravidin plate, anti-M13-HRP detection, blocking buffer alone).
Protocol: as §1

Binder | Phage binding ELISA signal, Anti-PSMA Fab
B21 | 0.944
B22 | 0.919
B23 | 0.904
B24 | 0.914
B25 | 0.899
B26 | 0.902
B27 | 0.896
B28 | 0.929
B29 | 0.908
B30 | 0.92
B31 | 0.934
B32 | 0.941
B33 | 0.939
B34 | 0.92
B35 | 0.923
B36 | 0.92
